Assay results as given in patent US20180016614.

Legend:
[1] = test system: His-tagged double mutant T7 RNA polymerase K183G, K190L expressed by C321.ΔA.759.T7.D
[2] = test system: N-terminally 6-His-tagged T7 RNA polymerase (wild type) expressed by C321.ΔA.759.T7

Outer membrane protease VII (OmpT)
proteolytic cleavage of double mutant T7RNAP in lysate (α-His western blot) [1]: the double mutant T7RNAP expressed by C321.ΔA.759.T7.D is not cleaved despite the presence of active OmpT in the cellular lysate
proteolytic cleavage of T7RNAP during lysate preparation (α-His western blot) [2]: the T7RNAP produced by the strain is cleaved near the N-terminus to yield a ˜21 kDa fragment
proteolytic cleavage of T7RNAP in lysate of the ompT knockout strain (α-His western blot) [2]: a Western blot revealed that in the absence of OmpT the T7RNAP is no longer cleaved
